± gives the uncertainty stated by the source.
Test: amyloid nucleation score (Sup35N fusion, yeast selection) (log enrichment); library NNK3; higher = more nucleation; inactive = no reads after selection
Outline: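 After 24 hours of induction with 100 μM copper sulfate, psi-negative yeast expressing peptides of 20 random codons fused to Sup35N were grown for 7 days at 30°C on medium lacking adenine and uracil. Input and output plasmid inserts were sequenced with Illumina, and sequences with under 100 input reads were discarded. Scores for nucleation are the DiMSum log enrichment of output over input reads, centred on the mode score of non-aggregating sequences.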

Row | Substance | amyloid nucleation score
1 | AGFLRDLMCDHLEDDGVPAV | inactive
2 | MFSYSNSHFSLRLMWRGLRF | inactive
3 | FEWLMGRHLYISLRLHMRRS | inactive
4 | SRFGMHKDTKMWSSRCRCVR | inactive
5 | WINNIAPPYGQ | inactive
6 | LAFYNQHWNFSMRSGMQGFK | 1.05 ± 0.23
7 | HCFTVWWEWP | inactive
8 | FLWLYQDCVV | inactive
9 | RFLLHLML | -0.4 ± 0.45
10 | EVAWVYEYQL | inactive
11 | TVAMR | inactive
12 | FDGFLNFVITSRSNVF | inactive
13 | LTRRSRLWHMSSYTWKKDVI | 0.084 ± 0.5
14 | HEMAYVVPTLVYYVYNTNSR | -0.076 ± 0.66
15 | KYYWFMF | 1.78 ± 0.096
16 | PKTIRDVYVDGEEHVHFRWR | inactive
17 | KNEAPRTGQTRPRSTGMYRI | inactive
18 | RNSIMSSDWSHSGYGS | inactive
19 | NVPGLSCNTSARLWRSSRLS | inactive
20 | SLNKHR | inactive
21 | VRMSRYSEWQDFNIPIEVIV | 0.776 ± 0.16
22 | YSSVILVY | 0.156 ± 0.48
23 | RGWDVWAVHSEFYCLKKLIV | inactive
24 | HYYVTVTHGS | inactive
25 | TFVKSVLSYVLGLELSLRGL | inactive
26 | NDWREANLF | inactive
27 | VSDLEERSSILG | inactive

Row | Substance | amyloid nucleation score
28 | ESKTCVVHLSAKCSLSEERT | inactive
29 | EFTNMYLPNSQQEVRFLQGL | inactive
30 | YVDMP | 0.089 ± 0.87
31 | NDTWCVLFRTPKLLCMSVFT | inactive
32 | PASLTRDVTMCFQNRWDPLR | inactive
33 | SFKKPRPNYLPVFLVYLCNS | inactive
34 | ILRYLSIVPRNFYRCYGHFG | inactive
35 | KAVLWFGDIWRQVG | inactive
36 | YSTPTDMLDLQFDKSASRGV | inactive
37 | DLWIYIVLYVVAHVALYKDG | inactive
38 | HNKAETTPLSHCMQSSSKLL | inactive
39 | KDKQVV | inactive
40 | RFWSMRALR | inactive
41 | FGFPTFFSMTV | inactive
42 | SDRAHGQFFRPGERLPSNPW | -0.069 ± 0.52
43 | YPLYASTS | 1.07 ± 0.16
44 | KLNLG | inactive
45 | LKHCQMGVVTSSYLMWLVGT | inactive
46 | YIASNAWETWRRDRSYRKRL | inactive
47 | RDHMSS | inactive
48 | FVRDRFTIMFEWIAVLRLEL | inactive
49 | PVSICQFIVSMANFDLCSQG | 1.93 ± 0.068
50 | ATPFGWDHN | inactive
51 | MTTVKTDCFSQSRYYRHWET | inactive
52 | HKWGCGL | -0.539 ± 1.5
53 | YMEAC | inactive
54 | IETAGSTHSSTWGDYSNRLC | inactive

Row | Substance | amyloid nucleation score
55 | TCHLSKHEISYQLGDTNGHC | -0.516 ± 0.9
56 | YGMYC | inactive
57 | LGIAPDHMSCSGVNRKCGYS | inactive
58 | TAFTYYASVSFVSRL | 1.38 ± 0.093
59 | LASNFVGASIPPRRACGCRA | inactive
60 | RIQCIRLDHFSLSLFYFFTA | 0.636 ± 0.21
61 | MRELQENVNDDS | inactive
62 | AVQYPSVCWNYKSNSMHC | inactive
63 | YSRPMVTL | inactive
64 | VSNLGCCKALSCGMSYRVCW | inactive
65 | ATCLLIGFGPWMSPAG | inactive
66 | LATHSICVKGNSRVSELISA | inactive
67 | NVDGKLVD | inactive
68 | VNGFRVHWERPEHCYSVLML | inactive
69 | GFLGCRSETFWRVVVTKRKV | inactive
70 | HFVTDDNGGICDVDNV | inactive
71 | GFSYM | inactive
72 | VNLGDGHVDDSIASQDMWHK | inactive
73 | TCGVVSPRGMSNMLCLGGWS | inactive
74 | CSNAHFWVRILKECSLRGSG | 0.587 ± 0.41
75 | CYGALVVQTAYME | inactive
76 | YNMFNTLVDRVQLRGLCYGV | inactive
77 | WPFRKKYGIVEIRDEMYAG | inactive
78 | SYFVWVNV | inactive
79 | WNSHQREEYTVDCYVVSVKL | -0.023 ± 0.6
80 | VGQYDTFGLRHHGGYRMRRG | inactive

Reference: the supplement of paper PMC12042874
